These results are taken from publication PMC3334367 (Molecular Cell, 2012).

This test deals with T1, GST-RNC (GST fused N-terminal RNC domain of Kog1, amino acids 1-637) (yeast, UniProt P38873 1-637).
T1 sequence (looked up): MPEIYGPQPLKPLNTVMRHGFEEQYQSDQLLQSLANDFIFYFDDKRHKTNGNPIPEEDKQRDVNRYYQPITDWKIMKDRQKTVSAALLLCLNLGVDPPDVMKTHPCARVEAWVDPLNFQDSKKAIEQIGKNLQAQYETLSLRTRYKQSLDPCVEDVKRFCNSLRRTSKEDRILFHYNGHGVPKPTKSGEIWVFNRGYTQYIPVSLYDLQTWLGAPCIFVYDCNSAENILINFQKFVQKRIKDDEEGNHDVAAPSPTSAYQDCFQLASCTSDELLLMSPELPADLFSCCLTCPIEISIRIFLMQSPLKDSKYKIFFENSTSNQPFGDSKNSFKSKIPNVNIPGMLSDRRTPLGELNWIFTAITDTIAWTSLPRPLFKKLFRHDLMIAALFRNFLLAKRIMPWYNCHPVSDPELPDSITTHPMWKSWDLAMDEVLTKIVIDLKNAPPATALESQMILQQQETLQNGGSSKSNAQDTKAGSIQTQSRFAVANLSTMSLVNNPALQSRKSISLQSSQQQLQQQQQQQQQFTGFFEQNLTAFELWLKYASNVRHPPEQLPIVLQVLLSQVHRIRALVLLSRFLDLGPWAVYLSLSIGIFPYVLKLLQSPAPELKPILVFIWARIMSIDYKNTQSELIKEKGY
The experiment in a line: pull-down.

B1: His tagged recombinant Tap42 (natural protein, yeast, UniProt Q04372 1-366, looked up)
chain: MASVTEQFNDIISLYSTKLEHTSLRQDSPEYQGLLLSTIKKLLNLKTAIFDRLALFSTNETIDDVSTASIKFLAVDYYLGLLISRRQSNDSDVAQRQSMKLIYLKKSVESFINFLTLLQDYKLLDPLVGEKLGNFKDRYNPQLSELYAQPKNNKDLSGAQLKRKEKIELFQRNKEISTKLHCLELELKNNDEDHDHDELLRELYLMRLHHFSLDTINNIEQNLFECEMLSNFLKNSVHEVKSSGTQIRKESNDDDSTGFTDKLENINKPLIDKKGQVLRNFTLVDKRQQLQQKVRGYGQYGPTMSVEEFLDKEFEEGRVLQGGEEPEQAPDEENMDWQDRETYKAREWDEFKESHAKGSGNTMNRG
Turning to B1, the binding result is reported as “binds”.

B2: His tagged recombinant Rho1 (natural protein, yeast, UniProt P06780 1-209, looked up)
chain: MSQQVGNSIRRKLVIVGDGACGKTCLLIVFSKGQFPEVYVPTVFENYVADVEVDGRRVELALWDTAGQEDYDRLRPLSYPDSNVVLICFSIDLPDSLENVQEKWIAEVLHFCQGVPIILVGCKVDLRNDPQTIEQLRQEGQQPVTSQEGQSVADQIGATGYYECSAKTGYGVREVFEAATRASLMGKSKTNGKAKKNTTEKKKKKCVLL
On to B2, for which the binding result is on record as “binds”.
